In publication PMC9468158, “Transmembrane helices mediate the formation of a stable ternary complex of b5R, cyt b5, and SCD1” (Communications Biology, 2022):
Numbering of substitutions follows the chain as printed. In names and notes the source's numbering stands.

Assays:
[1] = biological target: T1, full-length b5R, released from the linker-cleaved cyt b5-b5R fusion (mouse, UniProt Q9DCN2 1-301); test: cell-based or functional assay
T1 sequence (looked up): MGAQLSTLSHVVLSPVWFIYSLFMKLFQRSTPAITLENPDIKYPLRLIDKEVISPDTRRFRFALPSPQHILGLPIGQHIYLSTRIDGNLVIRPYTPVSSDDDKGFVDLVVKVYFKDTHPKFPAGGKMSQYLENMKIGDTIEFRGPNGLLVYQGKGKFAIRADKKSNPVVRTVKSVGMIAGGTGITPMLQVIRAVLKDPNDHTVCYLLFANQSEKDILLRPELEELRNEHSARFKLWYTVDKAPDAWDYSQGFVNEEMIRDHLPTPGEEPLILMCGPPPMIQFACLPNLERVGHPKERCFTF

[2] = biological target: T1, full-length b5R, released from the …; test: SEC; TM mutants in the linker-cleavable fusions, purified and cleaved by TEV protease; SRE-10C SEC-300 (Sepax) on HPLC, FPLC buffer, 0.75 mL/min; heme absorbance (413 nm by the results, 423 nm by the methods) gives the ratio of heterodimer to monomeric cyt b5; settings: both partners purified
[3] = biological target: T2, SCD1, released from the linker-cleaved SCD1-cyt b5-b5R fusions (mouse, UniProt P13516 1-355); test: SEC; ternary fusion SCD1-cyt b5-b5R purified, linkers cleaved by TEV protease, Superdex 200 10/300 GL in 20 mM HEPES pH 7.5, 150 mM NaCl, 1 mM DDM; three proteins in the sample; settings: both partners purified
T2 construct: stearoyl-CoA desaturase-1 (SCD1), mouse, UniProt P13516; stands for the SCD1 chain of the ternary fusion of the full-length proteins and of the sample with soluble cyt b5 and b5R; surmised: linker residues are left after TEV cleavage; not shown: GFP, N-terminal, cleaved
T2 sequence (looked up): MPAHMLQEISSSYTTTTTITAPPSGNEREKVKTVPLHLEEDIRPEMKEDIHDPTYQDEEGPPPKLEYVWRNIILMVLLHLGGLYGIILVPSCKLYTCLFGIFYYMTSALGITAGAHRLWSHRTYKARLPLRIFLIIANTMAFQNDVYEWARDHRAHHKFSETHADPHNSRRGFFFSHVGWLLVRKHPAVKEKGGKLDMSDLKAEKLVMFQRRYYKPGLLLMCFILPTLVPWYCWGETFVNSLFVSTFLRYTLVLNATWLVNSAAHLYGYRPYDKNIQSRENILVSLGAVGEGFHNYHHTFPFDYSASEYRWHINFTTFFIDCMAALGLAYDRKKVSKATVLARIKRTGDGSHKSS

[4] = biological target: T3, SCD1, released from the linker-cleaved SCD1-cyt b5 fusions (mouse, UniProt P13516 1-355); test: SEC; binary fusion protein purified, linker cleaved by TEV protease, Superdex 200 10/300 GL in 20 mM HEPES pH 7.5, 150 mM NaCl, 1 mM DDM; elution compared with the tethered fusion; settings: both partners purified
T3 construct: stearoyl-CoA desaturase-1 (SCD1), mouse, UniProt P13516; stands for the SCD1 chain of the fusion with full-length cyt b5 (wild type and TM mutants) and of the fusion with the soluble domain of cyt b5; the GFP tag stood at the C-terminus of the fusion; surmised: ENLYFQ is left at the C-terminus after cleavage
T3 sequence (looked up): T2 sequence (looked up)

[5] = biological target: T3, SCD1, released from the linker-cleaved …; test: SEC; TM mutants in the linker-cleavable fusions, purified and cleaved by TEV protease; SRE-10C SEC-300 (Sepax) on HPLC, FPLC buffer, 0.75 mL/min; heme absorbance (413 nm by the results, 423 nm by the methods) gives the ratio of heterodimer to monomeric cyt b5; settings: both partners purified
[6] = biological target: T4, SCD1, individual purified protein (mouse, UniProt P13516 1-355); test: BLI; Octet, 30 °C, 1000 rpm; soluble cyt b5 coupled to AR2G (amine reactive) biosensors; analytes soluble b5R or SCD1 at 5, 2.5 and 1.25 µM; FPLC buffer (20 mM HEPES pH 7.5, 150 mM NaCl, 1 mM DDM) plus 0.1% BSA; KD from kon and koff of 1-exponential fits; settings: both partners purified
T4 construct: stearoyl-CoA desaturase-1 (SCD1), mouse, UniProt P13516; surmised: ENLYFQ of the TEV site is left at the C-terminus; source: HEK 293S (BacMam), purified (GFP nanobody resin, released by TEV protease, SEC in 1 mM DDM); not shown: GFP, C-terminal, cleaved
T4 sequence (looked up): T2 sequence (looked up)

soluble b5R (24-301) = biological target: T5, soluble b5R (24-301) (mouse, UniProt Q9DCN2 24-301); test: as above; settings: both partners purified
T5 construct: source: E. coli BL21(DE3) (pET vector), purified (procedures similar to those for the full-length proteins)
T5 sequence (looked up): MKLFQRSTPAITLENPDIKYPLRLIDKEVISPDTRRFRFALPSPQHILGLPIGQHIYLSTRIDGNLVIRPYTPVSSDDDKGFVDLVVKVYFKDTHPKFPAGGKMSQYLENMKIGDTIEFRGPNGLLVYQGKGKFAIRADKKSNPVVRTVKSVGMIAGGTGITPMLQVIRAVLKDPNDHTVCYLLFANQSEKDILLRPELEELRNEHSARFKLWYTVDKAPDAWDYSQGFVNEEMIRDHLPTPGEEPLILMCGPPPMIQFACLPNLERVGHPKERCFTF

B1: full-length cyt b5, released from the linker-cleaved cyt b5-b5R fusion (natural protein, mouse, UniProt P56395 1-134, looked up)
chain: MAGQSDKDVKYYTLEEIQKHKDSKSTWVILHHKVYDLTKFLEEHPGGEEVLREQAGGDATENFEDVGHSTDARELSKTYIIGELHPDDRSKIAKPSDTLITTVESNSSWWTNWVIPAISALAVALMYRLYMAED
- difference of the electron transfer rate between no NaCl and 150 mM NaCl, stable binary complex [1]: 1.04 fold
- rate of electron transfer from b5R to cyt b5 (k1, reduction of cyt b5) in the stable binary complex against the mixture of the individual proteins, 150 mM NaCl [1]: ~34 fold

B2: cyt b5 A122W, released from the linker-cleaved cyt b5-b5R-TEV chimera (natural protein, mouse, UniProt P56395 1-134, looked up)
chain: B1 chain with A122W
notes: cytochrome b5, mouse, UniProt P56395; as m6 with the mutation; source: High Five cells (Bac-to-Bac), purified as a fusion with b5R, cleaved by TEV protease
- binding result [2]: binds

B3: cyt b5 A124W, released from the linker-cleaved cyt b5-b5R-TEV chimera (natural protein, mouse, UniProt P56395 1-134, looked up)
chain: B1 chain with A124W
notes: as for B2
- percent dissociation of the complex [2]: ~40%

B4: cyt b5 L121W, released from the linker-cleaved cyt b5-b5R-TEV chimera (natural protein, mouse, UniProt P56395 1-134, looked up)
chain: B1 chain with L121W
notes: as for B2
- binding result [2]: binds

B5: cyt b5 M126A, released from the linker-cleaved cyt b5-b5R-TEV chimera (natural protein, mouse, UniProt P56395 1-134, looked up)
chain: B1 chain with M126A
notes: as for B2
- binding result [2]: binds

B6: cyt b5 R128A, released from the linker-cleaved cyt b5-b5R-TEV chimera (natural protein, mouse, UniProt P56395 1-134, looked up)
chain: B1 chain with R128A
notes: as for B2
- percent dissociation of the complex [2]: ~40%

B7: cyt b5 S119A, released from the linker-cleaved cyt b5-b5R-TEV chimera (natural protein, mouse, UniProt P56395 1-134, looked up)
chain: B1 chain with S119A
notes: as for B2
- binding result [2]: binds

B8: cyt b5 V123W, released from the linker-cleaved cyt b5-b5R-TEV chimera (natural protein, mouse, UniProt P56395 1-134, looked up)
chain: B1 chain with V123W
notes: as for B2
- binding result [2]: binds

B9: cyt b5 Y127A, released from the linker-cleaved cyt b5-b5R-TEV chimera (natural protein, mouse, UniProt P56395 1-134, looked up)
chain: B1 chain with Y127A
notes: as for B2
- binding result [2]: binds

B10: full-length b5R, released from the linker-cleaved SCD1-cyt b5-b5R fusion (enzyme, mouse, UniProt Q9DCN2 1-301, looked up)
chain: T1 sequence (looked up)
notes: no extra residue after the C-terminus of b5R; surmised: a G is left at the N-terminus after TEV cleavage
- binding result [3]: binds

B11: full-length cyt b5, released from the linker-cleaved SCD1-cyt b5 fusion (natural protein, mouse, UniProt P56395 1-134, looked up)
chain: B1 chain
notes: cytochrome b5, mouse, UniProt P56395; surmised: G at the N-terminus and ENLYFQ at the C-terminus are left after TEV cleavage; not shown: GFP, C-terminal, cleaved
- binding result [4]: binds

B12: cyt b5 A122W, released from the linker-cleaved SCD1-cyt b5-TEV chimera (natural protein, mouse, UniProt P56395 1-134, looked up)
chain: B1 chain with A122W
notes: cytochrome b5, mouse, UniProt P56395; as m11 with the mutation; source: HEK 293S (BacMam), purified as a fusion with SCD1, cleaved by TEV protease; not shown: GFP, C-terminal, cleaved
- percent dissociation of the complex [5]: ~40%

B13: cyt b5 L121W, released from the linker-cleaved SCD1-cyt b5-TEV chimera (natural protein, mouse, UniProt P56395 1-134, looked up)
chain: B1 chain with L121W
notes: as for B12
- percent dissociation of the complex [5]: ~40%

B14: cyt b5 L125W, released from the linker-cleaved SCD1-cyt b5-TEV chimera (natural protein, mouse, UniProt P56395 1-134, looked up)
chain: B1 chain with L125W
notes: as for B12
- percent dissociation of the complex [5]: ~40%

B15: cyt b5 M126A, released from the linker-cleaved SCD1-cyt b5-TEV chimera (natural protein, mouse, UniProt P56395 1-134, looked up)
chain: B1 chain with M126A
notes: as for B12
- percent dissociation of the complex [5]: ~50%

B16: cyt b5 R128A, released from the linker-cleaved SCD1-cyt b5-TEV chimera (natural protein, mouse, UniProt P56395 1-134, looked up)
chain: B1 chain with R128A
notes: as for B12
- percent dissociation of the complex [5]: ~10%

B17: cyt b5 Y127A, released from the linker-cleaved SCD1-cyt b5-TEV chimera (natural protein, mouse, UniProt P56395 1-134, looked up)
chain: B1 chain with Y127A
notes: as for B12
- percent dissociation of the complex [5]: ~10%

B18: soluble cyt b5 (4-89), wild type (domain or fragment, mouse, UniProt P56395 4-89, looked up)
chain: QSDKDVKYYTLEEIQKHKDSKSTWVILHHKVYDLTKFLEEHPGGEEVLREQAGGDATENFEDVGHSTDARELSKTYIIGELHPDDR
notes: cytochrome b5, mouse, UniProt P56395, soluble domain, residues 4-89; coupled by amines to AR2G biosensors; also called cyt b5 (WT); source: E. coli BL21(DE3) (pET vector), purified (procedures similar to those for the full-length proteins)
- Kd [6]: 4.42 µM
- Kd (soluble b5R (24-301)): 2.71 µM

B19: soluble cyt b5 (4-89) E43A (domain or fragment, mouse, UniProt P56395 4-89, looked up)
chain: B18 chain with E40A
notes: cytochrome b5, mouse, UniProt P56395, soluble domain, residues 4-89; coupled by amines to AR2G biosensors; also called cyt b5 (E43A); source: E. coli BL21(DE3) (pET vector), purified (procedures similar to those for the full-length proteins)
- Kd [6]: 11.2 µM
- Kd (soluble b5R (24-301)): 9.63 µM

B20: soluble cyt b5 (4-89) E49A (domain or fragment, mouse, UniProt P56395 4-89, looked up)
chain: B18 chain with E46A
notes: cytochrome b5, mouse, UniProt P56395, soluble domain, residues 4-89; coupled by amines to AR2G biosensors; also called cyt b5 (E49A); source: E. coli BL21(DE3) (pET vector), purified (procedures similar to those for the full-length proteins)
- Kd [6]: 8.23 µM
- Kd (soluble b5R (24-301)): 8.45 µM

B21: full-length cyt b5, released from the linker-cleaved SCD1-cyt b5-b5R fusion (natural protein, mouse, UniProt P56395 1-134, looked up)
chain: B1 chain
notes: cytochrome b5, mouse, UniProt P56395; surmised: linker residues are left after TEV cleavage
- binding result [3]: binds
